Reference: paper PMC9834408, “The SPOC domain is a phosphoserine binding module that bridges transcription machinery with co- and post-transcriptional regulators” (Nature Communications, 2023)

B1: PHF3 SPOC R1248A (domain or fragment)
chain: STFLARLNFIWKGFINMPSVAKFVTKAYPVSGSPEYLTEDLPDSIQVGGAISPQTVWDYVEKIKASGTKEICVVRFTPVTEEDQISYTLLFAYFSSRKRYGVAANNMKQVKDMYLIPLGATDKIPHPLVPFDGPGLELHRPNLLLGLIIRQKLKRQHS
B2: DIDO SPOC R1096A (domain or fragment)
chain: TLFLSRLSTIWKGFINMQSVAKFVTKAYPVSGCFDYLSEDLPDTIHIGGAIAPKTVWDYVGKLKSSVSKELCLIRFHPATEEEEVAYISLYSYFSSRGRFGVVANNNRHVKDLYLIPLSAQDPVPSKLLPFEGPGLESPRPNIILGLVICQKIKRPANS

Molecular target: 2×S2P CTD diheptapeptide
Experiment: fluorescence polarisation; fluorescence anisotropy; 90 nM labelled peptide (Atto-488 on CTD peptides, FAM on NCoR and FMR1 peptides) titrated with increasing concentrations of SPOC domain; 20 °C; 25 mM Tris-Cl pH 7.4, 25 mM NaCl, 1 mM DTT; three independent dilution series

| Binder | Kd [µM] |
| --- | --- |
| B1 | 8.4 |
| B2 | 22.4 |
